# Results: PMC2259325, “Hepatitis C virus NS5A protein binds the SH3 domain of the Fyn tyrosine kinase with high affinity: mutagenic analysis of residues within the SH3 domain that contribute to the interaction” (Virology Journal, 2008)
# T1: NS5A(Δ32), N-terminally truncated hepatitis C virus non-structural 5A protein (hepatitis C virus (genotype 1b, J4 …, UniProt O92972 2005-2419))
# T1 construct: source: E. coli BL21 pLysS (DE3), purified (Ni-NTA, gel filtration on Superdex75)
# T1 sequence: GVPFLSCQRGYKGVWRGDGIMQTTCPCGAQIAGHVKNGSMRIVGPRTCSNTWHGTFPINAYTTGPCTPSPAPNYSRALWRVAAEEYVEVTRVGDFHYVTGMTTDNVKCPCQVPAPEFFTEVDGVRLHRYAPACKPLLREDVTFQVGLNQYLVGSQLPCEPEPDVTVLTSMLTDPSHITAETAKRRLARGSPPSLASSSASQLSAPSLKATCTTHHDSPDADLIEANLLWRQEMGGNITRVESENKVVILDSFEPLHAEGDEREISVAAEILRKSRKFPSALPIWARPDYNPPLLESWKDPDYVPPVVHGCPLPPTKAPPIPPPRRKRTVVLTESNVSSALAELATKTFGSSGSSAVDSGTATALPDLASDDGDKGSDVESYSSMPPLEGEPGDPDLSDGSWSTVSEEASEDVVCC
# B1: GST-Fyn SH3 domain fusion protein (wild type) (domain or fragment)
# chain: not shown
# notes: source: expressed and purified as previously described [6]
# Target: T1, NS5A(Δ32), N-terminally truncated …
# Test: SPR; Biacore 3000, HBS buffer (10 mM Hepes-NaOH pH 7.4, 150 mM NaCl, 0.005% Tween-20), 25°C; GST-SH3 captured on CM5 chip via amine-coupled anti-GST antibody; NS5A 3 μM - 100 nM flowed over, in triplicate; 1:1 Langmuir fit
# Conditions: both partners purified
binder,measurement,value
B1,koff,0.00308 s⁻¹
same,kon,4930 M⁻¹ s⁻¹
